Assay results published in patent publication US20210309732A1 (ELIXIRON IMMUNOTHERAPEUTICS HONG KONG, published 2021).
Residue numbers refer to the chain shown, from its start. Names and notes keep the numbering of the source.

B1: 1D2 SDR mutant HK32H (antibody, IgG1, V domains shown)
VH: QVQLVQSGAEVKKPGASVKVSCEASGYTFTDHYLHWVRQAPGQGLEWMAWINPKSGGTFYAQNFKGRVTVTRDTSINTAYLELTSLRLDDTSTYYCARGRDYYDQGAADLWGQGTMVTVSS
VL: DIQLTQSPSSLSASVGDRVTITCRASQGINSVLAWYQQKPGKAPKLLLYAASKLESGVPSRFSGSGSGTDYTLTISSLQPEDFGTYYCQQYYSPVRTFGQGTKVEIKR
notes: also called X2 H
B2: 1D2 SDR mutant HK54A (antibody, IgG1, V domains shown)
VH: B1 VH with H32K, K54A
VL: B1 VL
notes: also called X3 A
B3: 1D2 SDR mutant HK32R (antibody, V domains shown)
VH: B1 VH with H32R
VL: B1 VL
notes: not the clone labelled 32R, which is light chain V32R; also called X2 R
B4: 1D2 SDR mutant HK32T (antibody, IgG1, V domains shown)
VH: B1 VH with H32T
VL: B1 VL
notes: also called X2 T
B5: 1D2 SDR mutant HK54F (antibody, IgG1, V domains shown)
VH: B1 VH with H32K, K54F
VL: B1 VL
notes: also called X3 F
B6: 1D2 SDR mutant HK54E (antibody, IgG1, V domains shown)
VH: B1 VH with H32K, K54E
VL: B1 VL
notes: also called X3 E
B7: 1D2 SDR mutant HK54H (antibody, IgG1, V domains shown)
VH: B1 VH with H32K, K54H
VL: B1 VL
notes: also called X3 H
B8: 1D2 SDR mutant HK32Q (antibody, IgG1, V domains shown)
VH: B1 VH with H32Q
VL: B1 VL
notes: also called X2 Q
B9: 1D2 SDR mutant HK32V (antibody, IgG1, V domains shown)
VH: B1 VH with H32V
VL: B1 VL
notes: also called X2 V
B10: 1D2 SDR mutant HK32N (antibody, IgG1, V domains shown)
VH: B1 VH with H32N
VL: B1 VL
notes: also called X2 N
B11: 1D2 SDR mutant HK32L (antibody, IgG1, V domains shown)
VH: B1 VH with H32L
VL: B1 VL
notes: also called X2 L
B12: 1D2 SDR mutant HK54P (antibody, IgG1, V domains shown)
VH: B1 VH with H32K, K54P
VL: B1 VL
notes: also called X3 P
B13: 1D2 SDR mutant HK54C (antibody, IgG1, V domains shown)
VH: B1 VH with H32K, K54C
VL: B1 VL
notes: also called X3 C
B14: 1D2 SDR mutant HK54I (antibody, IgG1, V domains shown)
VH: B1 VH with H32K, K54I
VL: B1 VL
notes: also called X3 I
B15: 1D2 SDR mutant HK54N (antibody, IgG1, V domains shown)
VH: B1 VH with H32K, K54N
VL: B1 VL
notes: also called X3 N
B16: 1D2 SDR mutant HK54M (antibody, IgG1, V domains shown)
VH: B1 VH with H32K, K54M
VL: B1 VL
notes: also called X3 M
B17: 1D2 SDR mutant HK32S (antibody, IgG1, V domains shown)
VH: B1 VH with H32S
VL: B1 VL
notes: also called X2 S
B18: 1D2 SDR mutant HK32P (antibody, IgG1, V domains shown)
VH: B1 VH with H32P
VL: B1 VL
notes: also called X2 P

target: T1, recombinant human GM-CSF (human, UniProt P04141 18-144); test: ELISA on coated rhGM-CSF, UBA relative to 1D2
T1 construct: also called rhGM-CSF; CSF2
Text: Some of the residues in the CDRs are essential for epitope binding affinity and/or specificity. A number of computational methods were developed to detect these functional residues, generally known as ‘specificity-determining resides’ (SDRs). […] Based on the analysis, 7 amino acid residues in VH and 3 amino acid residues in VL were selected as the SDRs. The residues are labeled X₁ to X₁₀ for the ease of reference. The SDRs on VH are: Heavy chain D31 (HD31) (X₁), HK32 (X₂), HK54(X₃), HR100 (X₄), HY102 (X₅), HY103 (X₆) and HQ105 (X₇). The SDRs on VL are Light chain V32 (LV32) (X₈), LP94 (X₉) and LV95 (X₁₀). The SDRs were subsequently mutated by site-directed mutagenesis to other amino acids to generate mutant VH or VL clones. HEK293 cells were co-transfected with a vector encoding a mutant VH paired with a vector encoding a wild type VL or a vector encoding a wild type VH paired with a vector encoding a mutant VL. The antibody clones were harvested from the culture medium. The binding affinity of each antibody clone to human GM-CSF was tested by ELISA. The ELISA was done according to the following procedures. ELISA plate was coated with 50 μl of rhGM-CSF at 1 μg/mL. The plate was washed with 200 μl PBST for three times, followed by blocking with 1% BSA for 1 hour at room temperature. The antibody clones to be tested were diluted at 1:12000. 100 μl of the diluted antibodies were added to the cell at 100 μl/well. The plate was incubated at room temperature for 1 hour. The plate was then washed and incubated with 1:5000 diluted goat-anti-human secondary antibody conjugated with HRP at room temperature for one hour. The ELISA assay was developed with 100 μl developing buffer containing H₂O₂-Amplx Red per well in the dark for 5 min and the fluorescence intensity was read at Ex.530/Em.590 nm, with cutoff at 570 nm. The Unit Binding Activity (UBA) of each sample was calculated as the fluorescence signal/antibody clone dilution factor.

T1 sequence (P04141 18-144 limits assumed): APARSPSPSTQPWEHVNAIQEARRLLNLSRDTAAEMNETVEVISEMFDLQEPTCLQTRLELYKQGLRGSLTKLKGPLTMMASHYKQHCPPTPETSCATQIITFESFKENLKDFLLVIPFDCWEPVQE

| binding affinity % of 1D2 | Binder |
| --- | --- |
| 76% | B1 |
| 117% | B2 |
| 90% | B3 |
| 74% | B4 |
| 67% | B5 |
| 113% | B6 |
| 74% | B7 |
| 91% | B8 |
| 90% | B9 |
| 97% | B10 |
| 60% | B11 |
| 85% | B12 |
| 76% | B13 |
| 100% | B14 |
| 73% | B15 |
| 106% | B16 |
| 78% | B17 |
| 88% | B18 |
